B1: 75110_06C16A (antibody, V domains shown)
VH: QVQLQESGPGLVTPSETLSLSCTVSGGSISDYYWSWIRQPGGKGLEWIGRIYSSGSTNYNPSLKSRVTMSVDTSKNQFSLKLSSVTAADTAVYFCARDREDYYYYGMDVWGQGTTVTVSS
VL: DIQMTQSPSSLSASVGDRVTITCQASHDISNYLNWYQQKPGKAPKLLIYAASNLETGVPSRFSGSGSGTDFSFTISSLQPEDIATYYCQQYDHLPLTFGGGTKVEIK
notes: Tested as antibody purified from AlivaMab Mouse Kappa hybridoma (human V regions, kappa light chain, mouse Fc captured by anti-mouse Fc sensors)
B2: 75110_06G04A (antibody, V domains shown)
VH: QVQLLESGPGLVKPSETLSLTCTVSGGSISSYYWSWIRQPAGKGLEWIGRIYISGSTNYNPSLKSRVTMSIDTSENQFSLNLSSVTAADTAVYYCARELERPYYYGMDVWGQGTTVTVSS
VL: DIQMTQSPSSLSASVGDRVTITCQASQDISNYLNWYQQKPGKAPKLLIYNASTLETGVPSRFSGSGSGTDFTFTISSLQPEDIATYYCQQYDNLPLTFGGGTKVEFK
notes: as for B1
B3: 75110_06K03A (antibody, V domains shown)
VH: QVQLQESGPGLVKPSETLSLTCTVSGGSISTYYWSWIRQPAGKGLEWIGRINTSGSTTYNPSLKSRVTMSVDTSKNQFSLKLSSVTAADTAVYYCARELERYYYYGMDVWGQGTTVTVSS
VL: DIQMTQSPSSLSASVGDRVTITCQASQDISNYLNWYQQKPGKAPKLLIYYASILETGVPSRFSGSGSGTDFTFTISSLQPEDIATYYCQQYDSLPLTFGGGTKVEIK
notes: as for B1
B4: 75110_08D24A (antibody, V domains shown)
VH: QVQLQESGPGLVKPSETLSLTCTVSGGSISGFYWSWIRQPAGKGLEWIGRIYTSENTNYNPSLKSRVTMSVDTSKNQFSLKLSSVTAADTAVYYCARDREGYYYYGMDVWGQGTTVTVSS
VL: DIQMTQSPSSLSASVGDRVTITCQASQDISNYLNWYQQKPGKAPKLLIYAASNLETGVPSRFSGSGSGTDFTFTISSLQPEDIATYYCQQYDSLPITFGQGTRLEIK
notes: as for B1
B5: 75110_06E14A (antibody, V domains shown)
VH: QVQLQESGPGLVKPSETLSLTCTVSGGSISNYFWSWIRQPAGKGLEWIGRIYSSGNTNYNPSLKSRVTMSVDTSKNQFSLKLSSVTAADTAVYYCARDREDYYYYGMDVWGQGTTVTVSS
VL: DIQMTQSPSSLSASVGDRVTITCQASQDISNYLNWYQQKPGKAPKLLIYGASILETGVPSRFTGSGSGTDFTFTISSLQPEDIATYYCQQYDSLPITFGQGTRLEIK
notes: as for B1
B6: 75110_08M20A (antibody, V domains shown)
VH: QVQLQESDPGLVKPSETLSLTCTVSGGSISSYYWSWIRQPAGKGLEWIGRIYASGSTNYNPSLKSRVTMSVDTSKNQFSLKLSSVTAADTAVYYCARDREGYYYYGMDVWGQGTTVTVSS
VL: DIQMTQSPSSLSASVGDRVTITCQASQDISKYLNWYQQKPGKAPNLLIYAASNLETGVPSRFSGSGSGTDFTFTISSLQPEDIAAYYCQQYDSLPITFGQGTRLEIK
notes: as for B1
B7: 75110_06D16A (antibody, V domains shown)
VH: QVQLQQWGAGLLKPSETLSLTCAVYGGSFSGYYWSWIRQPPGKGLEWIGEINHSGSTNYNPSLKSRVTISVVTSKNQFSLKLSSVTAADTAVYYCARVLNWFDPWGQGTLVTVSS
VL: DIQMTQSPSSVSASVGDRVTITCRASQDIADWLAWYQQKPGKAPKLLIYAASSFQSGVPSRFSGSGSGTDFTLTISSLQPEDFATYFCQQANSFPYTFGQGTKLEIK
notes: as for B1
B8: 75110_07B16A (antibody, V domains shown)
VH: QVQLQQWGAGLLKPSETLSLTCAVYGGSFSGYYWSWIRQSPGKGLEWIGEINQSGSTNYNPSLKSRVTISVDTSKDQFSLKLSSVTAADTAVYYCARVINWFDSWGQGSLVTVSS
VL: DIQMTQSPSSVSASVGDRVTITCRASQGISSWLAWYQQKPGKAPKLLIYDASSFQSGVPSRFSGSGSGTDFTLTISSLQTDDFATYYCQQANSFPYTFGQGTKLEIK
notes: as for B1
B9: 75110_05L07A (antibody, V domains shown)
VH: EVQLVESGGGLVQPGGSLRLSCAASGFTFSSYWMSWVRQAPGKGLEWVANINQDGSDKYYVDSVKGRFTISRDNVKNSLYLQINSLRAEDTAVYYCAREGGQWLTLDYWGQGTLVTVSS
VL: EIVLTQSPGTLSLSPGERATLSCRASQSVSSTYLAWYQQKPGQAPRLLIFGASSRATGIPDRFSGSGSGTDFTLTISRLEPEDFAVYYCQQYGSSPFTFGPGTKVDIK
notes: as for B1
B10: 75110_11D03A (antibody, V domains shown)
VH: EVQLVESGGGLVQPGGSLRLSCAASGFTFSSYWMSWVRQAPGKGLEWVANINQDGNEKYYVDSVKGRFTISRDNAKNSLFLQMNSLRAEDTAVYYCAREGGQWLALDYWGQGALVTVSS
VL: DIQMTQSPSSVSASVGDRVTITCRASQGISSWLAWYQQKPGKAPKFLISGASSLQSGVPSRFSGSGSGTDFTLTISSLQPEDFATYYCQQANSFPWTFGQGTKVEIK
notes: as for B1
B11: 75110_08H11A (antibody, V domains shown)
VH: EVQLVESGGGLVQPGGSLRLSCAASGFTFSSYDMHWVRQATGKGLEWVSTIGTAGDTYYPGSVKGRFTISRENAKNSLYLQMNSLRAGDTAVYYCARGGYSYYGMDVWGQGTTVTVSS
VL: EIVLTQSPGTLSLSPGERATLSCGASQSVSSTYLAWYQQKPGQAPRLLIYGASSRATGIPDRFSGSGSGTDFTLTISRLEPEDFAVYYCQQFGSSPFTFGPGTKVDIK
notes: Tested as antibody purified from AlivaMab Mouse Kappa hybridoma (human V regions, kappa light chain, mouse Fc captured by anti-mouse Fc sensors); also called 75110_08H1lA
B12: 75110_07E04A (antibody, V domains shown)
VH: EVQLVESGGGLVQPGGSLRLSCAVSGFTFSSYDMHWVRQATGKGLEWVSTIGTAGDTYYPGSVKGRFTISRENAKKFLYLQMNSLRAGDTAVYYCARGGYYYYGMDVWGQGTTVTVSS
VL: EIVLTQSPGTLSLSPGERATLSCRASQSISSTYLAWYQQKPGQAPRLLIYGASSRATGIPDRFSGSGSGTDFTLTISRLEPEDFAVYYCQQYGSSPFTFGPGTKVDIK
notes: as for B1
B13: 75110_10O16A (antibody, V domains shown)
VH: EVQLVESGGGLVQPGGSLRLSCAASGFTFSNSDMHWVRQATGKGLEWVSTIGTAGDTYYPGSVKGRFTISRENAKNSLYLQMNSLRAGDTAVYYCARGGLYYYGMDVWGQGTTVTVSS
VL: ENVLTQSPGTLSLSPGERATLSCRASQSVSSSYLAWYQQKPGQAPRLLIYGASSRATGIPDRFSGSGSGTDFTLTISRLEPEDFAVYYCHQFGSSPFTFGPGTKVDIK
notes: Tested as antibody purified from AlivaMab Mouse Kappa hybridoma (human V regions, kappa light chain, mouse Fc captured by anti-mouse Fc sensors); also called 75110_10016A
B14: 75110_08H06A (antibody, V domains shown)
VH: EVQLVESGGGLVQPGGSLRLSCAASGFTFSNYDMHWVRQATGKGLEWVSTIGTAGDTYYPGSVKGRFTISRENAKNSLYLQMNSLRAGDTAVYYCARGGYDYYGMDVWGQGTTVTVSS
VL: EIVLTQSPGTLSLSPGERATLSCRASQSITSIYLAWYRQKPGQAPRLLIYGASSRATGIPDRFSGSGSGTDFTLTISRLEPEDFAVYYCQQYGSSPFTFGPGTKVDIK
notes: as for B1
B15: 75110_14H13A (antibody, V domains shown)
VH: EVQLVESGGGLVQPGGSLRLSCAASGFTFSNYDMHWVRQATGKGLEWVSTIGTAGDTYYPGSVKGRFTISRKNAKNSLYLQMISLRAGDTAVYYCARGGDYYYGMDVWGQGTTVTVSS
VL: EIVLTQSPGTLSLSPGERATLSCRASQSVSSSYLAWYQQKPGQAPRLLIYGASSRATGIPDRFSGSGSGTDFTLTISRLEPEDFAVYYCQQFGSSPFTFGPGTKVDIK
notes: as for B1
B16: 75110_10N21A (antibody, V domains shown)
VH: EVQLVESGGGLVQPGGSLRLSCAASGFTFSSYDMHWVRQVTGKGLEWVSTIGTAGDTYYPGSVKGRFTISRENAKNSLYLQMNSLRAGDTAVYYCARGGYYYYGMDVWGQGTTVTVSS
VL: EIVLTQSPGTLSLSPGERATLSCRASQSFISSYLAWYQQKPGQAPRLLIYGASSRATGIPDRFSGSGSGTDFTLTISRLDPEDFAVYYCQQSGNSPFTFGPGTKVDVK
notes: as for B1
B17: 75110_13C07A (antibody, V domains shown)
VH: EVQLVESGGVLVQPGGSLRLSCAASGFTFSNYDMHWVRQATGKGLEWVSTIGTAGDTYYPGSVKGRFTLSRENAKNSLYLQMHSLRAGDTAVYYCARGAYGYYGMDVWGQGTTVTVSS
VL: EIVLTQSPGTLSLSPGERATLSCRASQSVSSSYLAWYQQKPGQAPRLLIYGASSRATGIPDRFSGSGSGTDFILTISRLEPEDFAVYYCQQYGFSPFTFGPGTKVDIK
notes: as for B1
B18: 75110_05K11A (antibody, V domains shown)
VH: EVQLVESGGGLVQPGGSLRLSCAASGFTFSSYDMHWVRQPTGKGLEWVSTIGTAGDTYYPASVKGRFTISRENAKNSLYLQMNSLRAGDTAVYYCARGGFYYYGMDVWGQGTTVTVSS
VL: EIVLTQSPGTLSLSPGERVTLSCRASQSVSNTYLAWYQQKPGQAPRLLIYGASSRATGIPDRFSGSGSGTDFTLTISRLEPEDFVVYYCQQHGSSPFTFGPGTKVDIK
notes: as for B1
B19: 75110_08K12A (antibody, V domains shown)
VH: EVQLVESGGGLVQPGGSLRLSCAASGFTFSSYDMHWVRQATGKGLEWVSTIGTAGDTYYPGSVKGRFTISRENAENSLYLQMNSLRAGDTALYYCARGDYYYYGMDVWGQGTTVTVSS
VL: EIVLTQSPGTLSLSPGERATLSCRASQSVSSTYLAWYQQKPGQAPRLLIYGASNRATGIPDRFSGSGSGTDFTLTISRLEPEDFAVYYCQQFGTSPFTFGPGTKVDIK
notes: as for B1
B20: 75110_10L22A (antibody, V domains shown)
VH: EVQLVESGGGLVQPGGSLRLSCAASGFTFSSYDMHWVRQATGKGLEWVSTIGTAGDTYYPGSVKGRFTISRENAKNSLYLQMNGLRAGDTAVYYCARGNYFYYGVDVWGQGTTVTVSS
VL: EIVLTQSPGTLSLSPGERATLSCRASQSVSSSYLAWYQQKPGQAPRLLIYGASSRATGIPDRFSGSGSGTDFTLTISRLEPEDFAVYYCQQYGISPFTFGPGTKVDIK
notes: as for B1

Molecular target: T1, Recombinant human CD4 (R&D Systems, Cat. 10327-CD) (human, UniProt P01730 26-390, limits assumed)
T1 construct: Bought protein; also called huCD4
Assay: BLI (Octet Red384), purified antibody on anti-mouse Fc sensors, human CD4 100/50/25 nM, global 1:1 fit;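 also: antibodies loaded at 10 µg/mL, curves fitted across association and dissociation phases, with an unrelated mouse-derived antibody serving as internal reference control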

Q: How did the Kd turn out when B1 was run?
A: 16 nM

Q: What about the Response of the same binder?
A: 0.15

Q: What about the koff of the same binder?
A: 0.0012 s⁻¹

Q: And the kon?
A: 75000 M⁻¹ s⁻¹

Q: What does the source list for B2?
A: Kd: 6 nM; Response: 0.07; koff: 0.0015 s⁻¹; kon: 250000 M⁻¹ s⁻¹

Q: B3 was tested. Which Kd did it give?
A: 2.2 nM

Q: And the Response?
A: 0.11

Q: And the koff?
A: 3.6e-05 s⁻¹

Q: And the kon?
A: 16000 M⁻¹ s⁻¹

Q: With B4 as the binder, how does the Kd read?
A: 22 nM

Q: What about the Response of the same binder?
A: 0.11

Q: And the koff?
A: 0.00027 s⁻¹

Q: What about the kon of the same binder?
A: 12000 M⁻¹ s⁻¹

Q: How did the Kd turn out when B5 was run?
A: 14 nM

Q: What about the Response of the same binder?
A: 0.11

Q: And the koff?
A: 0.00026 s⁻¹

Q: And the kon?
A: 18000 M⁻¹ s⁻¹

Q: What does the source list for B6?
A: Kd: 9.2 nM; Response: 0.16; koff: 0.00091 s⁻¹; kon: 99000 M⁻¹ s⁻¹

Q: How did the Kd turn out when B7 was run?
A: 2.8 nM

Q: And the Response?
A: 0.25

Q: And the koff?
A: 0.00028 s⁻¹

Q: And the kon?
A: 100000 M⁻¹ s⁻¹

Q: B8 was tested. Which Kd did it give?
A: 3 nM

Q: What about the Response of the same binder?
A: 0.24

Q: And the koff?
A: 0.00043 s⁻¹

Q: And the kon?
A: 140000 M⁻¹ s⁻¹

Q: What does the source list for B9?
A: Kd: 15 nM; Response: 0.28; koff: 0.0016 s⁻¹; kon: 110000 M⁻¹ s⁻¹

Q: With B10 as the binder, how does the Kd read?
A: 3.2 nM

Q: And the Response?
A: 0.09

Q: And the koff?
A: 0.0013 s⁻¹

Q: What about the kon of the same binder?
A: 420000 M⁻¹ s⁻¹

Q: B11 was tested. Which Kd did it give?
A: 26 nM

Q: And the Response?
A: 0.04

Q: What about the koff of the same binder?
A: 3.6e-05 s⁻¹

Q: What about the kon of the same binder?
A: 1400 M⁻¹ s⁻¹

Q: Which results are given for B12?
A: Kd: < 0.001 nM; Response: 0.07; koff: < 1e-07 s⁻¹; kon: 35000 M⁻¹ s⁻¹

Q: With B13 as the binder, how does the Kd read?
A: 2.4 nM

Q: What about the Response of the same binder?
A: 0.08

Q: What about the koff of the same binder?
A: 0.00035 s⁻¹

Q: And the kon?
A: 140000 M⁻¹ s⁻¹

Q: With B14 as the binder, how does the Kd read?
A: 11 nM

Q: And the Response?
A: 0.04

Q: And the koff?
A: 0.00043 s⁻¹

Q: What about the kon of the same binder?
A: 39000 M⁻¹ s⁻¹

Q: B15 was tested. Which Kd did it give?
A: 2.1 nM

Q: What about the Response of the same binder?
A: 0.08

Q: And the koff?
A: 0.00011 s⁻¹

Q: What about the kon of the same binder?
A: 54000 M⁻¹ s⁻¹

Q: With B16 as the binder, how does the Kd read?
A: 0.59 nM

Q: And the Response?
A: 0.09

Q: What about the koff of the same binder?
A: 3.2e-05 s⁻¹

Q: And the kon?
A: 55000 M⁻¹ s⁻¹

Q: B17 was tested. Which Kd did it give?
A: 1.7 nM

Q: And the Response?
A: 0.11

Q: What about the koff of the same binder?
A: 0.00016 s⁻¹

Q: What about the kon of the same binder?
A: 92000 M⁻¹ s⁻¹

Q: What does the source list for B18?
A: Kd: < 0.001 nM; Response: 0.04; koff: < 1e-07 s⁻¹; kon: 36000 M⁻¹ s⁻¹

Q: With B19 as the binder, how does the Kd read?
A: 220 nM

Q: And the Response?
A: 0.05

Q: What about the koff of the same binder?
A: 0.00022 s⁻¹

Q: Which results are given for B20?
A: Kd: 12 nM; Response: 0.03; koff: 0.00045 s⁻¹; kon: 37000 M⁻¹ s⁻¹

From US20220112288A1 (published 2022)
